Measurements reported in article PMC4678419.

What was measured:
[1] = biological target: biotin-labeled surface proteins from human monocytes; assay: SPR; Biacore 3000; biotin-labeled surface proteins from THP-1 cells (3.2 kRU) or human monocytes (2.3 kRU) captured on a SA chip; 25 nM S100A8, S100A9 or S100A8/S100A9 injected 3 min at 20 uL/min in HBS-P with 1 mM Ca and 20 uM Zn; fit to a 1:1 model
[2] = biological target: biotin-labeled surface proteins from THP-1 cells; assay: as above

- Kd [1]: 2.3 nM
- Kd [2]: 3.3 nM
B1: S100A9 (recombinant human S100A9, produced at Active Biotech AB) (natural protein)
chain: MTCKMSQLERNIETIINTFHQYSVKLGHPDTLNQGEFKELVRKDLQNFLKKENKNEKVIEHIMEDLDTNADKQLSFEEFIMLMARLTWASHEKMHEGDEGPGHHHKPGLGEGTP
